Test results reported in paper PMC13544220, “Glycemic and bodyweight effects of GIPR coding variation reflect differences in surface expression and intrinsic functional impairment” (Science Advances, 2026).

Key:
[1] = tested on: wild-type and variant SNAP-GIPR in wild-type mouse islets; assay: Insulin secretion from wild-type mouse islets transduced with GIPR adenoviruses; type: cell-based; conditions: 11 mM glucose, particularly E354Q and R190Q, not significant
Description: Isolated islets used for insulin secretion assays were treated in 1.5-ml microcentrifuge tubes. Eight-ten islets were used per well with two-three technical replicates per condition. […] At the end of the treatment, supernatants containing the secreted insulin or glucagon were collected, centrifuged at 1000g for 5 min, and transferred to fresh tubes. […] The lysates were sonicated 3× for 10 s in a water bath and centrifuged at 10,000g for 10 min, and the supernatants were collected. […] GraphPad Prism 9.0 was used for the generation of the standard curve and sample concentration extrapolation. The total insulin or glucagon content was calculated by adding the secreted insulin to the insulin content of the lysates, and secretion was reported as the percentage release of total. The percent secretion of islets treated with agonist was normalized to that of islets treated with vehicle and reported as a fold change.

[2] = tested on: wild-type and variant SNAP-GIPR in Gipr-/- mouse islets; assay: Insulin secretion from Gipr-/- mouse islets transduced with GIPR adenoviruses; type: cell-based; conditions: Gipr-/- islets, 11 mM glucose, 100 nM GIP
Description: Isolated islets used for insulin secretion assays were treated in 1.5-ml microcentrifuge tubes. Eight-ten islets were used per well with two-three technical replicates per condition. […] At the end of the treatment, supernatants containing the secreted insulin or glucagon were collected, centrifuged at 1000g for 5 min, and transferred to fresh tubes. […] The lysates were sonicated 3× for 10 s in a water bath and centrifuged at 10,000g for 10 min, and the supernatants were collected. The samples were stored at −20°C until the insulin or glucagon concentrations were determined using an Insulin Ultra-Sensitive HTRF Assay kit (62IN2PEG, Revvity) or an HTRF Glucagon Detection Kit (62CGLPEG, Revvity) respectively, according to the manufacturer’s instructions. GraphPad Prism 9.0 was used for the generation of the standard curve and sample concentration extrapolation. The total insulin or glucagon content was calculated by adding the secreted insulin to the insulin content of the lysates, and secretion was reported as the percentage release of total. The percent secretion of islets treated with agonist was normalized to that of islets treated with vehicle and reported as a fold change.

[3] = tested on: wild-type and variant SNAP-GIPR; assay: Surface SNAP-GIPR expression (SNAP-tag labelling) in INS-1 cells; type: cell-based, human; conditions: Fig 4G; Mean
How it was run: (§1)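 Surface GIPR is quantified from wide-field images after labelling intact transfected cells with a membrane-impermeant SNAP probe at 500 nM for 10 min at room temperature. Specific signal, corrected for nontransfected cells, is normalized to the experiment-wide average or to wild-type.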

[4] = tested on: wild-type and variant SNAP-GIPR; assay: Constitutive and agonist-mediated internalization, reversible SNAP-tag labelling, INS-1 cells; type: cell-based, human; set-up: key to Internalisation, GIP-only / Internalisation, Vehicle / Internalisation, +GIP: % internalization: residual fluorescence after Mesna vs pre-Mesna; conditions: Mean
How it was run: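 % internalization = residual specific fluorescence after Mesna / pre-Mesna value. Imaging in TNE buffer pH 8.6; second image 10 min post-Mesna.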

[5] = tested on: wild-type and variant SNAP-GIPR; assay: Surface SNAP-GIPR expression (SNAP-tag labelling) in AD293 cells; type: cell-based, human; conditions: for AD293 Surface: Fig S3E, mean; for Surface SNAP-GIPR expression: sheet Fig 1C;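 as to all read-outs here: scaled to the experimental average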
How it was run: as §1

[6] = tested on: wild-type and variant SNAP-GIPR; assay: Single-concentration GIP cAMP response by HTRF in INS-1 cells; type: cell-based, human; conditions: Fig S3E, mean
Description: All variants were tested in parallel on each occasion to control for transfection efficiency differences between experiments.

CC[C@H](C)[C@H](NC(=O)[C@H](CO)NC(=O)[C@H](Cc1ccc(O)cc1)NC(=O)[C@H](CC(=O)O)NC(=O)[C@H](CO)NC(=O)[C@@H](NC(=O)[C@H](Cc1ccccc1)NC(=O)[C@@H](NC(=O)CNC(=O)[C@H](CCC(=O)O)NC(=O)[C@H](C)NC(=O)[C@@H](N)Cc1ccc(O)cc1)[C@@H](C)O)[C@@H](C)CC)C(=O)N[C@@H](C)C(=O)N[C@@H](CCSC)C(=O)N[C@@H](CC(=O)O)C(=O)N[C@@H](CCCCN)C(=O)N[C@H](C(=O)N[C@@H](Cc1c[nH]cn1)C(=O)N[C@@H](CCC(N)=O)C(=O)N[C@@H](CCC(N)=O)C(=O)N[C@@H](CC(=O)O)C(=O)N[C@@H](Cc1ccccc1)C(=O)N[C@H](C(=O)N[C@@H](CC(N)=O)C(=O)N[C@@H](Cc1c[nH]c2ccccc12)C(=O)N[C@@H](CC(C)C)C(=O)N[C@@H](CC(C)C)C(=O)N[C@@H](C)C(=O)N[C@@H](CCC(N)=O)C(=O)N[C@@H](CCCCN)C(=O)NCC(=O)N[C@@H](CCCCN)C(=O)N[C@@H](CCCCN)C(=O)N[C@@H](CC(N)=O)C(=O)N[C@@H](CC(=O)O)C(=O)N[C@@H](Cc1c[nH]c2ccccc12)C(=O)N[C@@H](CCCCN)C(=O)N[C@@H](Cc1c[nH]cn1)C(=O)N[C@@H](CC(N)=O)C(=O)N[C@H](C(=O)N[C@H](C(=O)N[C@@H](CCC(N)=O)C(=O)O)[C@@H](C)O)[C@@H](C)CC)C(C)C)[C@@H](C)CC [GIP, glucose-dependent insulinotropic polypeptide, reference compound]
GIP-induced insulin secretion [1]: tendency toward reduced responses to GIP stimulation
GIP-induced insulin secretion ([2]; 30 min, E354Q vs wild-type): blunted insulinotropic response
GIP-induced insulin secretion ([2]; R101H and E288G, not significant): apparent reduced GIP-induced insulin secretion
GIP-induced insulin secretion ([2]; R190Q, statistically significant): reduced GIP-induced insulin secretion

B1: WT (protein, UniProt P48546 22-466, looked up)
Gastric inhibitory …: RAETGSKGQTAGELYQRWERYRRECQETLAAAEPPSGLACNGSFDMYVCWDYAAPNATARASCPWYLPWHHHVAAGFVLRQCGSDGQWGLWRDHTQCENPEKNEAFLDQRLILERLQVMYTVGYSLSLATLLLALLILSLFRRLHCTRNYIHINLFTSFMLRAAAILSRDRLLPRPGPYLGDQALALWNQALAACRTAQIVTQYCVGANYTWLLVEGVYLHSLLVLVGGSEEGHFRYYLLLGWGAPALFVIPWVIVRYLYENTQCWERNEVKAIWWIIRTPILMTILINFLIFIRILGILLSKLRTRQMRCRDYRLRLARSTLTLVPLLGVHEVVFAPVTEEQARGALRFAKLGFEIFLSSFQGFLVSVLYCFINKEVQSEIRRGWHHCRLRRSLGEEQRQLPERAFRALPSGSGPGEVPTSRGLSSGTLPGPGNEASRELESYC
Surface expression [3]: 1.4278
+GIP internalisation (100 nM) ([4]; Fig 4G, GIP 100 nM): 0.7446
GIP-specific internalisation (100 nM) ([4]; Fig 4G, GIP 100 nM): 0.2047
Constitutive internalisation (100 nM) ([4]; Fig 4G): 0.5399
Internalisation, +GIP ([4]; Fig S4C, INS-1): 51.1244
Internalisation, GIP-only ([4]; Fig S4C, INS-1): 14.2697
Internalisation, Vehicle ([4]; Fig S4C, INS-1): 36.8547
AD293 Surface ([5]; column repeated, paired with cAMP 100 nM): 1.574
AD293 Surface ([5]; paired with cAMP 100 pM): 1.574
Surface SNAP-GIPR expression ([5]; replicate 1): 1.413
Surface SNAP-GIPR expression ([5]; replicate 2): 1.272
Surface SNAP-GIPR expression ([5]; replicate 3): 1.88
Surface SNAP-GIPR expression ([5]; replicate 4): 1.444
Surface SNAP-GIPR expression ([5]; replicate 5): 1.509
Surface SNAP-GIPR expression ([5]; replicate 6): 1.344
Surface SNAP-GIPR expression ([5]; replicate 7): 1.891
Surface SNAP-GIPR expression ([5]; replicate 8): 1.028
Surface SNAP-GIPR expression ([5]; replicate 9): 1.591
Surface SNAP-GIPR expression ([5]; replicate 10): 1.397
Surface SNAP-GIPR expression ([5]; replicate 11): 1.544
Surface SNAP-GIPR expression ([5]; replicate 12): 1.527
Surface SNAP-GIPR expression ([5]; replicate 13): 1.575
Surface SNAP-GIPR expression ([5]; replicate 14): 1.588
Surface SNAP-GIPR expression ([5]; replicate 15): 1.562
Surface SNAP-GIPR expression ([5]; replicate 16): 1.285
Surface SNAP-GIPR expression ([5]; replicate 17): 1.371
Surface SNAP-GIPR expression ([5]; replicate 18): 1.43
Surface SNAP-GIPR expression ([5]; replicate 19): 1.701
Surface SNAP-GIPR expression ([5]; replicate 20): 1.486
Surface SNAP-GIPR expression ([5]; replicate 21): 1.598
Surface SNAP-GIPR expression ([5]; replicate 22): 1.477
Surface SNAP-GIPR expression ([5]; replicate 23): 1.449
Surface SNAP-GIPR expression ([5]; replicate 24): 1.623
Surface SNAP-GIPR expression ([5]; replicate 25): 1.241
Surface SNAP-GIPR expression ([5]; replicate 26): 1.004
Surface SNAP-GIPR expression ([5]; replicate 27): 2.237
Surface SNAP-GIPR expression ([5]; replicate 28): 2.105
Surface SNAP-GIPR expression ([5]; replicate 29): 1.748
Surface SNAP-GIPR expression ([5]; replicate 30): 1.831
Surface SNAP-GIPR expression ([5]; replicate 31): 1.807
Surface SNAP-GIPR expression ([5]; replicate 32): 1.314
Surface SNAP-GIPR expression ([5]; replicate 33): 1.406
Surface SNAP-GIPR expression ([5]; replicate 34): 1.597
Surface SNAP-GIPR expression ([5]; replicate 35): 1.369
Surface SNAP-GIPR expression ([5]; replicate 36): 1.658
Surface SNAP-GIPR expression ([5]; replicate 37): 2.437
Surface SNAP-GIPR expression ([5]; replicate 38): 2.543
Surface SNAP-GIPR expression ([5]; replicate 39): 1.55
Surface SNAP-GIPR expression ([5]; replicate 40): 1.34
Surface SNAP-GIPR expression ([5]; replicate 41): 1.346
INS-1 cAMP (100 nM) [6]: 1.606
